Measured values: patent publication US20170051068A1 (Janssen / Centocor, published 2017)

Columns and labels:
[1] = molecular target: T1, Fc-fusion cyno BCMA (in-house; Cat# BCMW6.001) (cyno, UniProt Q02223 1-54 (human entry)); assay: SPR, Fc-BCMA, two-state model, first complex
T1 construct: also called Fc-BCMA Cy; cyno Fc-BCMA; not shown: Fc part

[2] = molecular target: T2, Recombinant human BCMA-Fc fusion protein (R&D Systems catalog #193-BC-050) (human, UniProt Q02223 1-54); assay: SPR, Fc-BCMA, two-state model, first complex
T2 construct: also called hBCMA-Fc; Fc-BCMA Hu; not shown: Fc part of the bought fusion protein
T2 sequence: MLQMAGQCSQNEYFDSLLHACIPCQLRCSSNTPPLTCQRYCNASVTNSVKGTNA

[3] = molecular target: T1, Fc-fusion cyno BCMA (in-house; Cat# …); assay: SPR, Fc-BCMA, two-state model, step 1 (koff1); first step (koff1)
[4] = molecular target: T2, Recombinant human BCMA-Fc fusion …; assay: as above
[5] = molecular target: T1, Fc-fusion cyno BCMA (in-house; Cat# …); assay: SPR, Fc-BCMA, two-state model, step 2
[6] = molecular target: T2, Recombinant human BCMA-Fc fusion …; assay: SPR, Fc-BCMA, two-state model, step 2
[7] = molecular target: T1, Fc-fusion cyno BCMA (in-house; Cat# …); assay: SPR, Fc-BCMA, two-state model, Final KD; Final complex KD, two-state model
[8] = molecular target: T2, Recombinant human BCMA-Fc fusion …; assay: as above
[9] = molecular target: T1, Fc-fusion cyno BCMA (in-house; Cat# …); assay: SPR, Fc-BCMA, two-state model, step 1 (kon1); first step (kon1)
[10] = molecular target: T2, Recombinant human BCMA-Fc fusion …; assay: as above

B1: BC3B8 (BCMA×CD3 bispecific antibody, BCMB123 × CD3B219) (bispecific antibody, human IgG4 S228P, lambda, F234A L235A)
heavy 1: EVQLVESGGGLVQPGGSLRLSCAASGFTFNTYAMNWVRQAPGKGLEWVARIRSKYNNYATYYAASVKGRFTISRDDSKNSLYLQMNSLKTEDTAVYYCARHGNFGNSYVSWFAYWGQGTLVTVSSASTKGPSVFPLAPCSRSTSESTAALGCLVKDYFPEPVTVSWNSGALTSGVHTFPAVLQSSGLYSLSSVVTVPSSSLGTKTYTCNVDHKPSNTKVDKRVESKYGPPCPPCPAPEAAGGPSVFLFPPKPKDTLMISRTPEVTCVVVDVSQEDPEVQFNWYVDGVEVHNAKTKPREEQFNSTYRVVSVLTVLHQDWLNGKEYKCKVSNKGLPSSIEKTISKAKGQPREPQVYTLPPSQEEMTKNQVSLTCLVKGFYPSDIAVEWESNGQPENNYKTTPPVLDSDGSFLLYSKLTVDKSRWQEGNVFSCSVMHEALHNHYTQKSLSLSLGK
light 1: QTVVTQEPSLTVSPGGTVTLTCRSSTGAVTTSNYANWVQQKPGQAPRGLIGGTNKRAPGTPARFSGSLLGGKAALTLSGVQPEDEAEYYCALWYSNLWVFGGGTKLTVLGQPKAAPSVTLFPPSSEELQANKATLVCLISDFYPGAVTVAWKADSSPVKAGVETTTPSKQSNNKYAASSYLSLTPEQWKSHRSYSCQVTHEGSTVEKTVAPTECS
heavy 2: not shown
light 2: SYVLTQPPSVSVAPGQTARITCGGNNIGSKSVHWYQQPPGQAPVVVVYDDSDRPSGIPERFSGSNSGNTATLTISRVEAGDEAVYYCQVWDSSSDHVVFGGGTKLTVLGQPKAAPSVTLFPPSSEELQANKATLVCLISDFYPGAVTVAWKADSSPVKAGVETTTPSKQSNNKYAASSYLSLTPEQWKSHRSYSCQVTHEGSTVEKTVAPTECS
notes: IgG4 made by Fab arm exchange; also called B123 × B219
Binder B1 has a KD1 [1] of 6.77 nM, a KD1 [2] of 0.91 nM and a koff [3] of 0.00734 s⁻¹. For the same binder, the koff [4] was 0.00123 s⁻¹, the koff2 [5] was 0.000326 s⁻¹ and the kon2 [5] was 0.00194 s⁻¹. The koff2 [6] was 0.000594 s⁻¹, the kon2 [6] was 0.00313 s⁻¹ and the Kd [7] was 0.97 nM. The Kd [8] was 0.14 nM, the kon [9] was 1.09e+06 M⁻¹ s⁻¹ and the kon [10] was 1.35e+06 M⁻¹ s⁻¹.

B2: BC3B10 (BCMA×CD3 bispecific antibody, BCMB129 × CD3B219) (bispecific antibody, human IgG4 S228P, lambda, F234A L235A)
heavy 1: EVQLVESGGGLVQPGGSLRLSCAASGFTFNTYAMNWVRQAPGKGLEWVARIRSKYNNYATYYAASVKGRFTISRDDSKNSLYLQMNSLKTEDTAVYYCARHGNFGNSYVSWFAYWGQGTLVTVSSASTKGPSVFPLAPCSRSTSESTAALGCLVKDYFPEPVTVSWNSGALTSGVHTFPAVLQSSGLYSLSSVVTVPSSSLGTKTYTCNVDHKPSNTKVDKRVESKYGPPCPPCPAPEAAGGPSVFLFPPKPKDTLMISRTPEVTCVVVDVSQEDPEVQFNWYVDGVEVHNAKTKPREEQFNSTYRVVSVLTVLHQDWLNGKEYKCKVSNKGLPSSIEKTISKAKGQPREPQVYTLPPSQEEMTKNQVSLTCLVKGFYPSDIAVEWESNGQPENNYKTTPPVLDSDGSFLLYSKLTVDKSRWQEGNVFSCSVMHEALHNHYTQKSLSLSLGK
light 1: QTVVTQEPSLTVSPGGTVTLTCRSSTGAVTTSNYANWVQQKPGQAPRGLIGGTNKRAPGTPARFSGSLLGGKAALTLSGVQPEDEAEYYCALWYSNLWVFGGGTKLTVLGQPKAAPSVTLFPPSSEELQANKATLVCLISDFYPGAVTVAWKADSSPVKAGVETTTPSKQSNNKYAASSYLSLTPEQWKSHRSYSCQVTHEGSTVEKTVAPTECS
heavy 2: not shown
light 2: SYVLTQPPSVSVAPGQTARITCGGNNIGSKSVHWYQQPPGQAPVVVVYDDSDRPSGIPERFSGSNSGNTATLTISRVEAGDEAVYYCQVWDSSSDHVVFGGGTKLTVLGQPKAAPSVTLFPPSSEELQANKATLVCLISDFYPGAVTVAWKADSSPVKAGVETTTPSKQSNNKYAASSYLSLTPEQWKSHRSYSCQVTHEGSTVEKTVAPTECS
notes: IgG4 made by Fab arm exchange; also called B129 × B219
Work on B2 yielded a KD1 [1] of 6.84 nM, a KD1 [2] of 1.5 nM and a koff [3] of 0.00636 s⁻¹. It also gave a koff [4] of 0.00155 s⁻¹, a koff2 [5] of 0.000359 s⁻¹ and a kon2 [5] of 0.00165 s⁻¹. The koff2 [6] was 0.000531 s⁻¹, the kon2 [6] was 0.00453 s⁻¹ and the Kd [7] was 1.22 nM. For the same binder, the Kd [8] was 0.16 nM, the kon [9] was 930000 M⁻¹ s⁻¹ and the kon [10] was 1.02e+06 M⁻¹ s⁻¹.
